{
  "source": "paper PMC12086086",
  "proteins": {"B1": {"name": "ribonucleotide reductase large subunit M1 (RRM1): RRM1-T734A (protein)", "parent chain": "MHVIKRDGRQERVMFDKITSRIQKLCYGLNMDFVDPAQITMKVIQGLYSGVTTVELDTLAAETAATLTTKHPDYAILAARIAVSNLHKETKKVFSDVMEDLYNYINPHNGKHSPMVAKSTLDIVLANKDRLNSAIIYDRDFSYNYFGFKTLERSYLLKINGKVAERPQHMLMRVSVGIHKEDIDAAIETYNLLSERWFTHASPTLFNAGTNRPQLSSCFLLSMKDDSIEGIYDTLKQCALISKSAGGIGVAVSCIRATGSYIAGTNGNSNGLVPMLRVYNNTARYVDQGGNKRPGAFAIYLEPWHLDIFEFLDLKKNTGKEEQRARDLFFALWIPDLFMKRVETNQDWSLMCPNECPGLDEVWGEEFEKLYASYEKQGRVRKVVKAQQLWYAIIESQTETGTPYMLYKDSCNRKSNQQNLGTIKCSNLCTEIVEYTSKDEVAVCNLASLALNMYVTSEHTYDFKKLAEVTKVVVRNLNKIIDINYYPVPEACLSNKRHRPIGIGVQGLADAFILMRYPFESAEAQLLNKQIFETIYYGALEASCDLAKEQGPYETYEGSPVSKGILQYDMWNVTPTDLWDWKVLKEKIAKYGIRNSLLIAPMPTASTAQILGNNESIEPYTSNIYTRRVLSGEFQIVNPHLLKDLTERGLWHEEMKNQIIACNGSIQSIPEIPDDLKQLYKTVWEISQKTVLKMAAERGAFIDQSQSLNIHIAEPNYGKLTSMHFYGWKQGLKTGMYYLRTRPAANPIQFTLNKEKLKDKEKVSKEEEEKERNTAAMVCSLENRDECLMCGS"}},
  "key": {"LC/MS": {"assay": "LC/MS", "settings": "glycan lost; control: parental PANC-1"}, "LIVE/DEAD staining": {"assay": "LIVE/DEAD staining", "settings": "glycan lost; control: parental PANC-1"}, "Western blot and qPCR": {"assay": "Western blot and qPCR", "settings": "glycan lost; control: parental PANC-1"}, "soft agar colony assay": {"assay": "soft agar colony assay", "settings": "glycan lost; control: parental PANC-1"}, "[1]": {"assay": "low-attachment sphere assay", "settings": "glycan lost; control: parental PANC-1"}, "blot": {"assay": "blot", "settings": "glycan lost; control: wild-type RRM1"}, "[2]": {"assay": "XTT viability, 3-day gemcitabine", "settings": "glycan lost; control: parental PANC-1"}, "[3]": {"assay": "nocodazole release, PI flow cytometry", "settings": "glycan lost; control: parental PANC-1"}, "[4]": {"assay": "γH2AX, 53BP1, RPA immunofluorescence foci", "settings": "glycan lost; control: parental PANC-1"}},
  "data": [
    {"protein": "B1", "values": [
      {"measurement": "other: cellular NTP pools", "setting": "LC/MS", "result": "decreases"},
      {"measurement": "other: cell death", "setting": "LIVE/DEAD staining", "result": "no change"},
      {"measurement": "other: thymidine phosphorylase (TP) expression", "setting": "Western blot and qPCR", "result": "decreases"},
      {"measurement": "other: colony formation", "setting": "soft agar colony assay", "result": "decreases"},
      {"measurement": "other: sphere formation", "setting": "[1]", "result": "decreases"},
      {"measurement": "other: RRM1 serine/threonine phosphorylation", "setting": "blot", "result": "decreases"},
      {"measurement": "other: gemcitabine sensitivity", "setting": "[2]", "result": "increases"},
      {"measurement": "other: S-phase duration", "setting": "[3]", "result": "increases"},
      {"measurement": "other: DNA damage and replication stress foci", "setting": "[4]", "result": "increases"}
    ]}
  ]
}
